In paper PMC4673316:

Target: ClpP1/P2 heptameric ring 3ClpP1 + 4ClpP2 (Synechococcus elongatus) (UniProt P54415)
Test: native MS; nano-ESI Q-ToF, 200 mM ammonium acetate with 2 mM TEA (weakly denaturing)

stoichiometry N: 2
Substance: ClpP1/P2 heptameric ring 3ClpP1 + 4ClpP2 (from UniProt P54415 1-197; O34125 1-240) (complex)
